# Laboratory results taken from US20100008917A1 (published 2010).
# T1: mouse IL-27 (muIL-27), as used in Example 5 (mouse, UniProt O35228 19-228; Q8K3I6 29-234, limits assumed)
# T1 sequence (looked up) 1: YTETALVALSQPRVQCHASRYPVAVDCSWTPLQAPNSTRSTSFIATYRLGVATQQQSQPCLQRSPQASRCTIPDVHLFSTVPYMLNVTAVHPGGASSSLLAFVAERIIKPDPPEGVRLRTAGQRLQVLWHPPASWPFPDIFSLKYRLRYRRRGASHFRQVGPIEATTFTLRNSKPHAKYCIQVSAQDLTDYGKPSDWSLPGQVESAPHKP
# T1 sequence (looked up) 2: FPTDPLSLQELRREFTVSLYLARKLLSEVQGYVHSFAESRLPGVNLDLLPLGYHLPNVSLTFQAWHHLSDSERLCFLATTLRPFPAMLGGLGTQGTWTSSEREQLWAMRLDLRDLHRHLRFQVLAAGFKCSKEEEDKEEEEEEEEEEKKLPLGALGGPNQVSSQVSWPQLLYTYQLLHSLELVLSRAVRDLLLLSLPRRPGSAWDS
# T2: human IL-27 (huIL-27), as used in Example 5 (human, UniProt Q14213 21-229; Q8NEV9 29-243, limits assumed)
# T2 sequence (looked up) 1: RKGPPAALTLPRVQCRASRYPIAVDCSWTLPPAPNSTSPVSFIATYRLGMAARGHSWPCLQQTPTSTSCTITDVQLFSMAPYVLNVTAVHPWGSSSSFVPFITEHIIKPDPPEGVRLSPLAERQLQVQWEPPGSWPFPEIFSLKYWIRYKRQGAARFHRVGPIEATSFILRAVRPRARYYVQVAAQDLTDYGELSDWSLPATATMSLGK
# T2 sequence (looked up) 2: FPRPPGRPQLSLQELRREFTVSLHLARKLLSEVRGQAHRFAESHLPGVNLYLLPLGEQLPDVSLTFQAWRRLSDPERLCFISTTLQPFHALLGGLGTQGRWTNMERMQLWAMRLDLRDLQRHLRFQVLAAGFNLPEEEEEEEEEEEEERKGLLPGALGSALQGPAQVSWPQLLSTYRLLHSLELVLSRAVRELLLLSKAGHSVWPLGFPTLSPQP
# B1: human IL27RA-Fc5 fusion protein (Fc fusion)
# chain: QGSAGPLQCYGVGPLGDLNCSWEPLGDLGAPSELHLQSQKYRSNKTQTVAVAAGRSWVAIPREQLTMSDKLLVWGTKAGQPLWPPVFVNLETQMKPNAPRLGPDVDFSEDDPLEATVHWAPPTWPSHKVLICQFHYRRCQEAAWTLLEPELKTIPLTPVEIQDLELATGYKVYGRCRMEKEEDLWGEWSPILSFQTPPSAPKDVWVSGNLCGTPGGEEPLLLWKAPGPCVQVSYKVWFWVGGRELSPEGITCCCSLIPSGAEWARVSAVNATSWEPLTNLSLVCLDSASAPRSVAVSSIAGSTELLVTWQPGPGEPLEHVVDWARDGDPLEKLNWVRLPPGNLSALLPGNFTVGVPYRITVTAVSASGLASASSVWGFREELAPLVGPTLWRLQDAPPGTPAIAWGEVPRHQLRGHLTHYTLCAQSGTSPSVCMNVSGNTQSVTLPDLPWGPCELWVTASTIAGQGPPGPILRLHLPDNTEPKSSDKTHTCPPCPAPEAEGAPSVFLFPPKPKDTLMISRTPEVTCVVVDVSHEDPEVKFNWYVDGVEVHNAKTKPREEQYNSTYRVVSVLTVLHQDWLNGKEYKCKVSNKALPSSIEKTISKAKGQPREPQVYTLPPSRDELTKNQVSLTCLVKGFYPSDIAVEWESNGQPENNYKTTPPVLDSDGSFFLYSKLTVDKSRWQQGNVFSCSVMHEALHNHYTQKSLSLSPGK
# B2: IL27RAm(mFc1) (Fc fusion)
# chain: TRPHGSPGPLQCYSVGPLGILNCSWEPLGDLETPPVLYHQSQKYHPNRVWEVKVPSKQSWVTIPREQFTMADKLLIWGTQKGRPLWSSVSVNLETQMKPDTPQIFSQVDISEEATLEATVQWAPPVWPPQKALTCQFRYKECQAEAWTRLEPQLKTDGLTPVEMQNLEPGTCYQVSGRCQVENGYPWGEWSSPLSFQTPFLDPEDVWVSGTVCETSGKRAALLVWKDPRPCVQVTYTVWFGAGDITTTQEEVPCCKSPVPAWMEWAVVSPGNSTSWVPPTNLSLVCLAPESAPCDVGVSSADGSPGIKVTWKQGTRKPLEYVVDWAQDGDSLDKLNWTRLPPGNLSTLLPGEFKGGVPYRITVTAVYSGGLAAAPSVWGFREELVPLAGPAVWRLPDDPPGTPVVAWGEVPRHQLRGQATHYTFCIQSRGLSTVCRNVSSQTQTATLPNLHSGSFKLWVTVSTVAGQGPPGPDLSLHLPDNRIREPRGPTIKPCPPCKCPAPNLLGGPSVFIFPPKIKDVLMISLSPIVTCVVVDVSEDDPDVQISWFVNNVEVHTAQTQTHREDYNSTLRVVSALPIQHQDWMSGKEFKCKVNNKDLPAPIERTISKPKGSVRAPQVYVLPPPEEEMTKKQVTLTCMVTDFMPEDIYVEWTNNGKTELNYKNTEPVLDSDGSYFMYSKLRVEKKNWVERNSYSCSVVHEGLHNHHTTKSFSRTPGK
# Tests used:
# Assay in all cases: cell-based or functional assay
# [1] = target: T1, mouse IL-27 (muIL-27), as used in …
# [2] = target: T2, human IL-27 (huIL-27), as used in …
# [3] = target: T1, mouse IL-27 (muIL-27), as used in …; remark: listed apart in the source
# [4] = target: T2, human IL-27 (huIL-27), as used in …; remark: listed apart in the source
Binder,"IC50 (nM), phospho-STAT3 in total human PBMCs stimulated with the EC90 of the ligand [1]","IC50 (nM), phospho-STAT3 in total human PBMCs stimulated with the EC90 of the ligand [2]","IC50 (nM), phospho-STAT3 in mouse spleens stimulated with the EC90 of the ligand [3]","IC50 (nM), phospho-STAT3 in mouse spleens stimulated with the EC90 of the ligand [4]"
B1,2.97 nM,0.95 nM,0.14 nM,0.32 nM
B2,4.83 nM,1370 nM,0.18 nM,9.3 nM
